From patent publication US20070253967A1, “Agent for the treatment and/or prophylaxis of microcirculatory disorders” (priority 1997, published 2007) come the findings set out here.

This experiment has as its target T1, fibrinogen (Homo sapiens, UniProt P02675+P02679).
T1 construct: then loaded with heparinized plasma (40 ml); from tissue; host or cells: heparinized plasma
As to the kind of experiment: Specifity of the coupled Sepharose by SDS gel electrophoresis. Type of experiment: binding. To be noted: statement in the description. As for the experimental part: The pentapeptide Gly-Pro-Arg-Pro-Lys was synthetized as trifluoracetate and coupled to cyanobromide-active Sepharose CL-4B. The specifity of the coupled Sepharose was tested by means of SDS gel electrophoresis.

T1 sequence (P02671 20-629 partner limits assumed): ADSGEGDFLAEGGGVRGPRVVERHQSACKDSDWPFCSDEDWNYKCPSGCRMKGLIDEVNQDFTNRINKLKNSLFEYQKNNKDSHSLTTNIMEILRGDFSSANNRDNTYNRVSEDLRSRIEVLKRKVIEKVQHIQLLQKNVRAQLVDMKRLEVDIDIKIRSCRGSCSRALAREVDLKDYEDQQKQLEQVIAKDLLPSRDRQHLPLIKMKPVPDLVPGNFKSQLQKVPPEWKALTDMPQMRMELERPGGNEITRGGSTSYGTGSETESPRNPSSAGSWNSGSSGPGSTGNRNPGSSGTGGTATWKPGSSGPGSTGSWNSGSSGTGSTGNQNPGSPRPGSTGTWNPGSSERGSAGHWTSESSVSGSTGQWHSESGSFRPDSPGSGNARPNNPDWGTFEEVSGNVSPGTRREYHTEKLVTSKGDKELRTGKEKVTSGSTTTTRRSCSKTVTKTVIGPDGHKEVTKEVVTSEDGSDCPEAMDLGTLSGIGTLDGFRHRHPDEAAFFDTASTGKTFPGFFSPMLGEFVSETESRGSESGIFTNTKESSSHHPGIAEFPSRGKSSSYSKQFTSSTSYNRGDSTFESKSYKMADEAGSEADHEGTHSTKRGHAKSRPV
T1 sequence (P02675 31-491): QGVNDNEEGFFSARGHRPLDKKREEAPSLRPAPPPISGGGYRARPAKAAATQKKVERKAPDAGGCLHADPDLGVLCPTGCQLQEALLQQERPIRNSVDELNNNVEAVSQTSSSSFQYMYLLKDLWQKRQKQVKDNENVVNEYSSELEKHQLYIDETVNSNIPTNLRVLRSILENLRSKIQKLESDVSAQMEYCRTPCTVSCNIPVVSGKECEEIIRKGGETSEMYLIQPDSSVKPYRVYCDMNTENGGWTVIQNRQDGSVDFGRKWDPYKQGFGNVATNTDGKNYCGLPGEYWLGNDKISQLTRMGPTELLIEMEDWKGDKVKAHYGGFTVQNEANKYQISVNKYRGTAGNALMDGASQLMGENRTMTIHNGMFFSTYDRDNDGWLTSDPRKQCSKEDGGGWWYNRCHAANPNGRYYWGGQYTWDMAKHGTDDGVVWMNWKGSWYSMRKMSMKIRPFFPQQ
T1 sequence (P02679 27-453): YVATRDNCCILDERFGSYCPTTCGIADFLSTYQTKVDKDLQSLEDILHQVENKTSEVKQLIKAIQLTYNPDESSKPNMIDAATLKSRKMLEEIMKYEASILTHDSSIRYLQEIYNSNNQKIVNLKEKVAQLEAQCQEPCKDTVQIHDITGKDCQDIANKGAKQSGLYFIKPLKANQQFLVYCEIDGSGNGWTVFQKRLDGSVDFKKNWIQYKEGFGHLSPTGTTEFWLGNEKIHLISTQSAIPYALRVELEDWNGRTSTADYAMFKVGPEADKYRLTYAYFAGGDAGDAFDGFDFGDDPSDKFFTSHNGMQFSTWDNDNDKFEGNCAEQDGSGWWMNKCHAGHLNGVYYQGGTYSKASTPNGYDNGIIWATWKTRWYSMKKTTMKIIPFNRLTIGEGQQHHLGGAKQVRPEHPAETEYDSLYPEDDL

Consider “Gly-Pro-Arg-Pro-Lys (GPRPK; printed: Gly-Pro-Arg-Pro-Lys) [pentapeptide ligand for fibrinogen and/or fibrin]”, for which the “specifity for fibrinogen and/or fibrin” value is on record as “very high specifity”.
